Laboratory results: IntAct's records for PubMed 16888623

B1: Mucin-1 (Homo sapiens), P15941-12 (parent)
chain: MTPGTQSPFFLLLLLTVLTATTAPKPATVVTGSGHASSTPGGEKETSATQRSSVPSSTEKNAFNSSLEDPSTDYYQELQRDISEMAVCQCRRKNYGQLDIFPARDTYHPMSEYPTYHTHGRYVPPSSTDRSPYEKVSAGNGGSSLSYTNPAVAATSANL

Variants of: B1
Details: with abl1_human ABL1, P00519
Sequence of abl1_human ABL1, P00519 (P00519 whole entry): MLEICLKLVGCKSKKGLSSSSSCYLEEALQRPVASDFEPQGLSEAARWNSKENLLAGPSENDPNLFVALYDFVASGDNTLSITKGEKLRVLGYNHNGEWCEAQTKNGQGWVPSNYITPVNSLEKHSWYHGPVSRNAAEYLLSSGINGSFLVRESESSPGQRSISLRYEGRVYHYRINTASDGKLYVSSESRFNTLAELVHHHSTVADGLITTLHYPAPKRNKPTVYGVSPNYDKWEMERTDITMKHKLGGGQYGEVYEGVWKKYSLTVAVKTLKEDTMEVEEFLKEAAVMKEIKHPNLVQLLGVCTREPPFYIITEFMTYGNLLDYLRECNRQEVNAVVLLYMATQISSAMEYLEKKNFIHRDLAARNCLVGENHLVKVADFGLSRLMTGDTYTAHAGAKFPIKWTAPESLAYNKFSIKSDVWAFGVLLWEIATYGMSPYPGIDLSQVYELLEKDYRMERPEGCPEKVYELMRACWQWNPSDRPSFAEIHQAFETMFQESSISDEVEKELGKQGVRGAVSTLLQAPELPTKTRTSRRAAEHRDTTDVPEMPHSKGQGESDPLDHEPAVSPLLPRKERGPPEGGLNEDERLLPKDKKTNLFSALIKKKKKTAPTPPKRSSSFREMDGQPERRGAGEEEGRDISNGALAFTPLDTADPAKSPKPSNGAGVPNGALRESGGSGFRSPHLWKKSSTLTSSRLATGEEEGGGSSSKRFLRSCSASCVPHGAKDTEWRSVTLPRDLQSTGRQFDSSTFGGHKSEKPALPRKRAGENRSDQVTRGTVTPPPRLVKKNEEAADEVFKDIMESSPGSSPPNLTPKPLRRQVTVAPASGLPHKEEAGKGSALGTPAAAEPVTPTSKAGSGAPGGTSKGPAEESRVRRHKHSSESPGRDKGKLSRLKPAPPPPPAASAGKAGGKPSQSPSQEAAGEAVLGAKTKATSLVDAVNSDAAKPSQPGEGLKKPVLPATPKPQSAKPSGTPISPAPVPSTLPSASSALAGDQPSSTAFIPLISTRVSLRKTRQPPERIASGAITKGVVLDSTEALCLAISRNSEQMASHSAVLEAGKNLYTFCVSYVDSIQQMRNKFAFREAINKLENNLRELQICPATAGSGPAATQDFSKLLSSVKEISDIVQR

effect of a mutation on the interaction | Variant
disrupting interaction | MTPGTQSPFFLLLLLTVLTATTAPKPATVVTGSGHASSTPGGEKETSATQRSSVPSSTEKNAFNSSLEDPSTDYYQELQRDISEMAVCQCRRKNYGQLDIFPARDTYHPMSEYPTYHTHGRYVPPSSTDRSPYEKVSAGNGGSSLSFTNPAVAATSANL [Y147F]
